{
  "source": "paper PMC5705213",
  "about": "“Immunoproteasome functions explained by divergence in cleavage specificity and regulation” (eLife, 2017)",
  "type_in_all_cases": "biochemical, human",
  "key": {"[1]": {"substrate": "CC(=O)N[C@@H](C)C(=O)N[C@@H](CC(N)=O)C(=O)N[C@@H](Cc1c[nH]c2ccccc12)C(=O)Nc1ccc2c(C)cc(=O)oc2c1", "assay": "Purified proteasome activity assay with fluorogenic substrates, SDS-activated i20S", "settings": "other: i20S, Michaelis-Menten; pH 8.0", "procedure": "(§1) Non-prime-side substrate specificity profiling was performed with a complete, diverse library of 160,000 fluorogenic substrates containing the general structure acetyl-P4-P3-P2-P1-(7-amino-4-carbamoylmethylcourmarin, ACC) ([Harris et al., 2000]). For each sub-library, 10 nM human i20S or c20S underwent SDS pre-activation for 1 hr at room temperature in assay buffer (20 mM Tris, pH 8.0, 0.5 mM EDTA) containing 0.03% SDS. […] Activity assays were carried out over 1 hr following two-fold sample dilution in the same 0.03% SDS-containing buffer that also contained a 250 μM final concentration of PS-SCL substrate pool. Activity was recorded in black 96-well round bottom plates (Costar, COrning, NY) using a BioTek Synergy H4 Hybrid Multi-Mode Microplate Reader set to λex = 380 nm and λem = 460 nm (gain = 63). Initial velocity in relative fluorescence units per second (RFU/s) was calculated using a linear fit of the progress curves with Gen5 software v.2.03.\n(§2) Activity assays with individual fluorogenic substrates were carried out as described above for the PS-SCL assays using final concentrations of 5 nM SDS-activated i20S or c20S and 10 μM substrate except where noted below. The commercial substrates Suc-LLVY-AMC, Ac-WLA-AMC (Boston Biochem, S-330), and Ac-ANW-AMC (Boston Biochem, S-320) were used as supplied. To convert cleaved substrate RFU to free AMC or ACC dye concentration, calibration curves were prepared through total enzymatic hydrolysis of ACC- or AMC-containing peptides that had been quantified through amino acid analysis (Alphalyse, Inc.). Substrate selectivity of PA28α- and SDS-activated 20S proteasomes was compared following 1 hr pre-incubation at room temperature either in the presence of 0.03% SDS or with 12 molar equivalents of PA28α activator in the absence of SDS. For substrate selectivity assays with mixed, purified proteasomes, i20S and c20S underwent individual SDS pre-activation prior to assaying with 5 nM final concentration of pooled 20S. Proteasome ratio assays were performed with 10 μM EWFW-ACC, 30 μM iso-VQA-ACC, and 30 μM Suc-LLVY-AMC. All activity measurements were recorded on the BioTek plate reader described above using λex = 380 nm and λem = 460 nm (gain = 63) for ACC substrates and Suc-LLVY-AMC; 345 nm and λem = 445 nm (gain = 63) for Ac-WLA-AMC and Ac-ANW-AMC; and λex = 328 nm and λem = 393 nm (gain = 75) for the GEWHWPS IQ substrate. Michaelis-Menten calculations were performed using a non-linear fit in Prism v.6.0."}, "[2]": {"substrate": "Cc1cc(=O)oc2cc(NC(=O)[C@H](Cc3ccc(O)cc3)NC(=O)[C@@H](NC(=O)[C@H](CC(C)C)NC(=O)[C@H](CC(C)C)NC(=O)CCC(=O)O)C(C)C)ccc12", "assay": "Purified proteasome activity assay with fluorogenic substrates, SDS-activated i20S", "settings": "other: Michaelis-Menten plot, commercial substrate; pH 8.0", "procedure": "as §1, §2"}, "[3]": {"substrate": "Cc1cc(C(=O)N[C@H](C(=O)N[C@@H](CCC(N)=O)C(=O)N[C@@H](C)C(=O)Nc2ccc3c(CC(N)=O)cc(=O)oc3c2)C(C)C)no1", "assay": "Purified proteasome activity assay with fluorogenic substrates, SDS-activated i20S", "settings": "other: i20S, Michaelis-Menten; pH 8.0", "procedure": "as §1, §2"}, "[4]": {"substrate": "NC(=O)Cc1cc(=O)oc2cc(NC(=O)[C@H](Cc3c[nH]c4ccccc34)NC(=O)[C@H](Cc3c[nH]cn3)NC(=O)[C@H](Cc3c[nH]c4ccccc34)NC(=O)[C@@H](N)CCC(=O)O)ccc12", "assay": "Purified proteasome activity assay with fluorogenic substrates, SDS-activated i20S", "settings": "other: i20S, Michaelis-Menten; pH 8.0", "procedure": "as §1, §2"}, "[5]": {"substrate": "NC(=O)Cc1cc(=O)oc2cc(NC(=O)[C@H](Cc3c[nH]c4ccccc34)NC(=O)[C@H](Cc3ccccc3)NC(=O)[C@H](Cc3c[nH]c4ccccc34)NC(=O)[C@@H](N)CCC(=O)O)ccc12", "assay": "Purified proteasome activity assay with fluorogenic substrates, SDS-activated i20S", "settings": "other: i20S, Michaelis-Menten; pH 8.0", "procedure": "as §1, §2"}, "[6]": {"substrate": "CC(=O)N[C@@H](C)C(=O)N[C@@H](CC(N)=O)C(=O)N[C@@H](Cc1c[nH]c2ccccc12)C(=O)Nc1ccc2c(C)cc(=O)oc2c1", "assay": "Purified proteasome activity assay with fluorogenic substrates, SDS-activated c20S", "settings": "other: c20S, Michaelis-Menten; pH 8.0", "procedure": "as §1, §2"}, "[7]": {"substrate": "Cc1cc(=O)oc2cc(NC(=O)[C@H](Cc3ccc(O)cc3)NC(=O)[C@@H](NC(=O)[C@H](CC(C)C)NC(=O)[C@H](CC(C)C)NC(=O)CCC(=O)O)C(C)C)ccc12", "assay": "Purified proteasome activity assay with fluorogenic substrates, SDS-activated c20S", "settings": "other: Michaelis-Menten plot, commercial substrate; pH 8.0", "procedure": "as §1, §2"}, "[8]": {"substrate": "Cc1cc(C(=O)N[C@H](C(=O)N[C@@H](CCC(N)=O)C(=O)N[C@@H](C)C(=O)Nc2ccc3c(CC(N)=O)cc(=O)oc3c2)C(C)C)no1", "assay": "Purified proteasome activity assay with fluorogenic substrates, SDS-activated c20S", "settings": "other: c20S, Michaelis-Menten; pH 8.0", "procedure": "as §1, §2"}, "[9]": {"substrate": "NC(=O)Cc1cc(=O)oc2cc(NC(=O)[C@H](Cc3c[nH]c4ccccc34)NC(=O)[C@H](Cc3c[nH]cn3)NC(=O)[C@H](Cc3c[nH]c4ccccc34)NC(=O)[C@@H](N)CCC(=O)O)ccc12", "assay": "Purified proteasome activity assay with fluorogenic substrates, SDS-activated c20S", "settings": "other: c20S, Michaelis-Menten; pH 8.0", "procedure": "as §1, §2"}, "[10]": {"substrate": "NC(=O)Cc1cc(=O)oc2cc(NC(=O)[C@H](Cc3c[nH]c4ccccc34)NC(=O)[C@H](Cc3ccccc3)NC(=O)[C@H](Cc3c[nH]c4ccccc34)NC(=O)[C@@H](N)CCC(=O)O)ccc12", "assay": "Purified proteasome activity assay with fluorogenic substrates, SDS-activated c20S", "settings": "other: c20S, Michaelis-Menten; pH 8.0", "procedure": "as §1, §2"}},
  "data": [
    {"protein": "human immunoproteasome core particle (i20S) (Homo sapiens) (protein, purchased Boston Biochem E-370) chain 1: TTTLAFKFQHGVIAAVDSRASAGSYISALRVNKVIEINPYLLGTMSGCAADCQYWERLLAKECRLYYLRNGERISVSAASKLLSNMMCQYRGMGLSMGSMICGWDKKGPGLYYVDEHGTRLSGNMFSTGSGNTYAYGVMDSGYRPNLSPEEAYDLGRRAIAYATHRDSYSGGVVNMYHMKEDGWVKVESTDVSDLLHQYREANQ chain 2: RFSPYVFNGGTILAIAGEDFAIVASDTRLSEGFSIHTRDSPKCYKLTDKTVIGCSGFHGDCLTLTKIIEARLKMYKHSNNKAMTTGAIAAMLSTILYSRRFFPYYVYNIIGGLDEEGKGAVYSFDPVGSYQRDSFKAGGSASAMLQPLLDNQVGFKNMQNVEHVPLSLDRAMRLVKDVFISAAERDVYTGDALRICIVTKEGIREETVSLRKD", "values": [
      {"measurement": "Km", "setting": "[1]", "result": 20, "unit": "µM"},
      {"measurement": "kcat", "setting": "[1]", "result": 1.2, "unit": "s⁻¹"},
      {"measurement": "kcat/Km", "setting": "[1]", "result": 58000, "unit": "M⁻¹ s⁻¹"},
      {"measurement": "Km", "setting": "[2]", "result": 98.6, "unit": "µM"},
      {"measurement": "Km", "setting": "[3]", "result": 43, "unit": "µM"},
      {"measurement": "kcat", "setting": "[3]", "result": 0.65, "unit": "s⁻¹"},
      {"measurement": "kcat/Km", "setting": "[3]", "result": 15000, "unit": "M⁻¹ s⁻¹"},
      {"measurement": "Km", "setting": "[4]", "result": 52, "unit": "µM"},
      {"measurement": "kcat", "setting": "[4]", "result": 6.8, "unit": "s⁻¹"},
      {"measurement": "kcat/Km", "setting": "[4]", "result": 130000, "unit": "M⁻¹ s⁻¹"},
      {"measurement": "Km", "setting": "[5]", "result": 7.0, "unit": "µM"},
      {"measurement": "kcat", "setting": "[5]", "result": 4.8, "unit": "s⁻¹"},
      {"measurement": "kcat/Km", "setting": "[5]", "result": 690000, "unit": "M⁻¹ s⁻¹"}
    ]},
    {"protein": "constitutive proteasome core particle (c20S) (Homo sapiens) (protein, purchased Boston Biochem E-360) chain 1: TTTLAFKFRHGVIVAADSRATAGAYIASQTVKKVIEINPYLLGTMAGGAADCSFWERLLARQCRIYELRNKERISVAAASKLLANMVYQYKGMGLSMGTMICGWDKRGPGLYYVDSEGNRISGATFSVGSGSVYAYGVMDRGYSYDLEVEQAYDLARRAIYQATYRDAYSGGAVNLYHVREDGWIRVSSDNVADLHEKYSGSTP chain 2: RFSPYVFNGGTILAIAGEDFAIVASDTRLSEGFSIHTRDSPKCYKLTDKTVIGCSGFHGDCLTLTKIIEARLKMYKHSNNKAMTTGAIAAMLSTILYSRRFFPYYVYNIIGGLDEEGKGAVYSFDPVGSYQRDSFKAGGSASAMLQPLLDNQVGFKNMQNVEHVPLSLDRAMRLVKDVFISAAERDVYTGDALRICIVTKEGIREETVSLRKD", "values": [
      {"measurement": "Km", "setting": "[6]", "result": 9.8, "unit": "µM"},
      {"measurement": "kcat", "setting": "[6]", "result": 0.1, "unit": "s⁻¹"},
      {"measurement": "kcat/Km", "setting": "[6]", "result": 10000, "unit": "M⁻¹ s⁻¹"},
      {"measurement": "Km", "setting": "[7]", "result": 65.7, "unit": "µM"},
      {"measurement": "Km", "setting": "[8]", "result": 51, "unit": "µM"},
      {"measurement": "kcat", "setting": "[8]", "result": 2.3, "unit": "s⁻¹"},
      {"measurement": "kcat/Km", "setting": "[8]", "result": 45000, "unit": "M⁻¹ s⁻¹"},
      {"measurement": "Km", "setting": "[9]", "result": 73, "unit": "µM"},
      {"measurement": "kcat", "setting": "[9]", "result": 1.1, "unit": "s⁻¹"},
      {"measurement": "kcat/Km", "setting": "[9]", "result": 15000, "unit": "M⁻¹ s⁻¹"},
      {"measurement": "Km", "setting": "[10]", "result": 1.8, "unit": "µM"},
      {"measurement": "kcat", "setting": "[10]", "result": 0.31, "unit": "s⁻¹"},
      {"measurement": "kcat/Km", "setting": "[10]", "result": 170000, "unit": "M⁻¹ s⁻¹"}
    ]}
  ]
}
